Reference: paper PMC7367873, “Dissecting the sequence determinants for dephosphorylation by the catalytic subunits of phosphatases PP1 and PP2A” (Nature Communications, 2020)

B1: HERC5 (protein, UniProt Q9UII4 1-1024, looked up)
E3 ISG15--protein ligase HERC5: MERRSRRKSRRNGRSTAGKAAATQPAKSPGAQLWLFPSAAGLHRALLRRVEVTRQLCCSPGRLAVLERGGAGVQVHQLLAGSGGARTPKCIKLGKNMKIHSVDQGAEHMLILSSDGKPFEYDNYSMKHLRFESILQEKKIIQITCGDYHSLALSKGGELFAWGQNLHGQLGVGRKFPSTTTPQIVEHLAGVPLAQISAGEAHSMALSMSGNIYSWGKNECGQLGLGHTESKDDPSLIEGLDNQKVEFVACGGSHSALLTQDGLLFTFGAGKHGQLGHNSTQNELRPCLVAELVGYRVTQIACGRWHTLAYVSDLGKVFSFGSGKDGQLGNGGTRDQLMPLPVKVSSSEELKLESHTSEKELIMIAGGNQSILLWIKKENSYVNLKRTIPTLNEGTVKRWIADVETKRWQSTKREIQEIFSSPACLTGSFLRKRRTTEMMPVYLDLNKARNIFKELTQKDWITNMITTCLKDNLLKRLPFHSPPQEALEIFFLLPECPMMHISNNWESLVVPFAKVVCKMSDQSSLVLEEYWATLQESTFSKLVQMFKTAVICQLDYWDESAEENGNVQALLEMLKKLHRVNQVKCQLPESIFQVDELLHRLNFFVEVCRRYLWKMTVDASENVQCCVIFSHFPFIFNNLSKIKLLHTDTLLKIESKKHKAYLRSAAIEEERESEFALRPTFDLTVRRNHLIEDVLNQLSQFENEDLRKELWVSFSGEIGYDLGGVKKEFFYCLFAEMIQPEYGMFMYPEGASCMWFPVKPKFEKKRYFFFGVLCGLSLFNCNVANLPFPLALFKKLLDQMPSLEDLKELSPDLGKNLQTLLDDEGDNFEEVFYIHFNVHWDRNDTNLIPNGSSITVNQTNKRDYVSKYINYIFNDSVKAVYEEFRRGFYKMCDEDIIKLFHPEELKDVIVGNTDYDWKTFEKNARYEPGYNSSHPTIVMFWKAFHKLTLEEKKKFLVFLTGTDRLQMKDLNNMKITFCCPESWNERDPIRALTCFSVLFLPKYSTMETVEEALQEAINNNRGFG
B2: XPO5 (protein, UniProt Q9HAV4 2-1204, looked up)
Exportin-5: AMDQVNALCEQLVKAVTVMMDPNSTQRYRLEALKFCEEFKEKCPICVPCGLRLAEKTQVAIVRHFGLQILEHVVKFRWNGMSRLEKVYLKNSVMELIANGTLNILEEENHIKDALSRIVVEMIKREWPQHWPDMLIELDTLSKQGETQTELVMFILLRLAEDVVTFQTLPPQRRRDIQQTLTQNMERIFSFLLNTLQENVNKYQQVKTDTSQESKAQANCRVGVAALNTLAGYIDWVSMSHITAENCKLLEILCLLLNEQELQLGAAECLLIAVSRKGKLEDRKPLMVLFGDVAMHYILSAAQTADGGGLVEKHYVFLKRLCQVLCALGNQLCALLGADSDVETPSNFGKYLESFLAFTTHPSQFLRSSTQMTWGALFRHEILSRDPLLLAIIPKYLRASMTNLVKMGFPSKTDSPSCEYSRFDFDSDEDFNAFFNSSRAQQGEVMRLACRLDPKTSFQMAGEWLKYQLSTFLDAGSVNSCSAVGTGEGSLCSVFSPSFVQWEAMTLFLESVITQMFRTLNREEIPVNDGIELLQMVLNFDTKDPLILSCVLTNVSALFPFVTYRPEFLPQVFSKLFSSVTFETVEESKAPRTRAVRNVRRHACSSIIKMCRDYPQLVLPNFDMLYNHVKQLLSNELLLTQMEKCALMEALVLISNQFKNYERQKVFLEELMAPVASIWLSQDMHRVLSDVDAFIAYVGTDQKSCDPGLEDPCGLNRARMSFCVYSILGVVKRTCWPTDLEEAKAGGFVVGYTSSGNPIFRNPCTEQILKLLDNLLALIRTHNTLYAPEMLAKMAEPFTKALDMLDAEKSAILGLPQPLLELNDSPVFKTVLERMQRFFSTLYENCFHILGKAGPSMQQDFYTVEDLATQLLSSAFVNLNNIPDYRLRPMLRVFVKPLVLFCPPEHYEALVSPILGPLFTYLHMRLSQKWQVINQRSLLCGEDEAADENPESQEMLEEQLVRMLTREVMDLITVCCVSKKGADHSSAPPADGDDEEMMATEVTPSAMAELTDLGKCLMKHEDVCTALLITAFNSLAWKDTLSCQRTTSQLCWPLLKQVLSGTLLADAVTWLFTSVLKGLQMHGQHDGCMASLVHLAFQIYEALRPRYLEIRAVMEQIPEIQKDSLDQFDCKLLNPSLQKVADKRRKDQFKRLIAGCIGKPLGEQFRKEVHIKNLPSLFKKTKPMLETEVLDNDGGGLATIFEP
B3: JUP (protein, UniProt P14923 1-745, looked up)
Junction plakoglobin: MEVMNLMEQPIKVTEWQQTYTYDSGIHSGANTCVPSVSSKGIMEEDEACGRQYTLKKTTTYTQGVPPSQGDLEYQMSTTARAKRVREAMCPGVSGEDSSLLLATQVEGQATNLQRLAEPSQLLKSAIVHLINYQDDAELATRALPELTKLLNDEDPVVVTKAAMIVNQLSKKEASRRALMGSPQLVAAVVRTMQNTSDLDTARCTTSILHNLSHHREGLLAIFKSGGIPALVRMLSSPVESVLFYAITTLHNLLLYQEGAKMAVRLADGLQKMVPLLNKNNPKFLAITTDCLQLLAYGNQESKLIILANGGPQALVQIMRNYSYEKLLWTTSRVLKVLSVCPSNKPAIVEAGGMQALGKHLTSNSPRLVQNCLWTLRNLSDVATKQEGLESVLKILVNQLSVDDVNVLTCATGTLSNLTCNNSKNKTLVTQNSGVEALIHAILRAGDKDDITEPAVCALRHLTSRHPEAEMAQNSVRLNYGIPAIVKLLNQPNQWPLVKATIGLIRNLALCPANHAPLQEAAVIPRLVQLLVKAHQDAQRHVAAGTQQPYTDGVRMEEIVEGCTGALHILARDPMNRMEIFRLNTIPLFVQLLYSSVENIQRVAAGVLCELAQDKEAADAIDAEGASAPLMELLHSRNEGTATYAAAVLFRISEDKNPDYRKRVSVELTNSLFKHDPAAWEAAQSMIPINEPYGDDMDATYRPMYSSDVPLDPLEMHMDMDGDYPIDTYSDGLRPPYPTADHMLA
B4: QARS (protein, UniProt P47897 2-775, looked up)
Glutamine--tRNA ligase: AALDSLSLFTSLGLSEQKARETLKNSALSAQLREAATQAQQTLGSTIDKATGILLYGLASRLRDTRRLSFLVSYIASKKIHTEPQLSAALEYVRSHPLDPIDTVDFERECGVGVIVTPEQIEEAVEAAINRHRPQLLVERYHFNMGLLMGEARAVLKWADGKMIKNEVDMQVLHLLGPKLEADLEKKFKVAKARLEETDRRTAKDVVENGETADQTLSLMEQLRGEALKFHKPGENYKTPGYVVTPHTMNLLKQHLEITGGQVRTRFPPEPNGILHIGHAKAINFNFGYAKANNGICFLRFDDTNPEKEEAKFFTAICDMVAWLGYTPYKVTYASDYFDQLYAWAVELIRRGLAYVCHQRGEELKGHNTLPSPWRDRPMEESLLLFEAMRKGKFSEGEATLRMKLVMEDGKMDPVAYRVKYTPHHRTGDKWCIYPTYDYTHCLCDSIEHITHSLCTKEFQARRSSYFWLCNALDVYCPVQWEYGRLNLHYAVVSKRKILQLVATGAVRDWDDPRLFTLTALRRRGFPPEAINNFCARVGVTVAQTTMEPHLLEACVRDVLNDTAPRAMAVLESLRVIITNFPAAKSLDIQVPNFPADETKGFHQVPFAPIVFIERTDFKEEPEPGFKRLAWGQPVGLRHTGYVIELQHVVKGPSGCVESLEVTCRRADAGEKPKAFIHWVSQPLMCEVRLYERLFQHKNPEDPTEVPGGFLSDLNLASLHVVDAALVDCSVALAKPFDKFQFERLGYFSVDPDSHQGKLVFNRTVTLKEDPGKV
B5: MRE11A (protein, UniProt P49959 2-708, looked up)
Double-strand break repair …: STADALDDENTFKILVATDIHLGFMEKDAVRGNDTFVTLDEILRLAQENEVDFILLGGDLFHENKPSRKTLHTCLELLRKYCMGDRPVQFEILSDQSVNFGFSKFPWVNYQDGNLNISIPVFSIHGNHDDPTGADALCALDILSCAGFVNHFGRSMSVEKIDISPVLLQKGSTKIALYGLGSIPDERLYRMFVNKKVTMLRPKEDENSWFNLFVIHQNRSKHGSTNFIPEQFLDDFIDLVIWGHEHECKIAPTKNEQQLFYISQPGSSVVTSLSPGEAVKKHVGLLRIKGRKMNMHKIPLHTVRQFFMEDIVLANHPDIFNPDNPKVTQAIQSFCLEKIEEMLENAERERLGNSHQPEKPLVRLRVDYSGGFEPFSVLRFSQKFVDRVANPKDIIHFFRHREQKEKTGEEINFGKLITKPSEGTTLRVEDLVKQYFQTAEKNVQLSLLTERGMGEAVQEFVDKEEKDAIEELVKYQLEKTQRFLKERHIDALEDKIDEEVRRFRETRQKNTNEEDDEVREAMTRARALRSQSEESASAFSADDLMSIDLAEQMANDSDDSISAATNKGRGRGRGRRGGRGQNSASRGGSQRGRADTGLETSTRSRNSKTAVSASRNMSIIDAFKSTRQQPSRNVTTKNYSEVIEVDESDVEEDIFPTTSKTDQRWSSTSSSKIMSQSQVSKGVDFESSEDDDDDPFMNTSSLRRNRR
B6: RAI14 (protein, UniProt Q9P0K7 1-980, looked up)
Ankycorbin: MKSLKAKFRKSDTNEWNKNDDRLLQAVENGDAEKVASLLGKKGASATKHDSEGKTAFHLAAAKGHVECLRVMITHGVDVTAQDTTGHSALHLAAKNSHHECIRKLLQSKCPAESVDSSGKTALHYAAAQGCLQAVQILCEHKSPINLKDLDGNIPLLLAVQNGHSEICHFLLDHGADVNSRNKSGRTALMLACEIGSSNAVEALIKKGADLNLVDSLGYNALHYSKLSENAGIQSLLLSKISQDADLKTPTKPKQHDQVSKISSERSGTPKKRKAPPPPISPTQLSDVSSPRSITSTPLSGKESVFFAEPPFKAEISSIRENKDRLSDSTTGADSLLDISSEADQQDLLSLLQAKVASLTLHNKELQDKLQAKSPKEAEADLSFDSYHSTQTDLGPSLGKPGETSPPDSKSSPSVLIHSLGKSTTDNDVRIQQLQEILQDLQKRLESSEAERKQLQVELQSRRAELVCLNNTEISENSSDLSQKLKETQSKYEEAMKEVLSVQKQMKLGLVSPESMDNYSHFHELRVTEEEINVLKQDLQNALEESERNKEKVRELEEKLVEREKGTVIKPPVEEYEEMKSSYCSVIENMNKEKAFLFEKYQEAQEEIMKLKDTLKSQMTQEASDEAEDMKEAMNRMIDELNKQVSELSQLYKEAQAELEDYRKRKSLEDVTAEYIHKAEHEKLMQLTNVSRAKAEDALSEMKSQYSKVLNELTQLKQLVDAQKENSVSITEHLQVITTLRTAAKEMEEKISNLKEHLASKEVEVAKLEKQLLEEKAAMTDAMVPRSSYEKLQSSLESEVSVLASKLKESVKEKEKVHSEVVQIRSEVSQVKREKENIQTLLKSKEQEVNELLQKFQQAQEELAEMKRYAESSSKLEEDKDKKINEMSKEVTKLKEALNSLSQLSYSTSSSKRQSQQLEALQQQVKQLQNQLAECKKQHQEVISVYRMHLLYAVQGQMDEDVQKVLKQILTMCKNQSQKK
B7: TMEM41B (protein, UniProt Q5BJD5 1-291, looked up)
Transmembrane protein 41B: MAKGRVAERSQLGAHHTTPVGDGAAGTRGLAAPGSRDHQKEKSWVEAGSARMSLLILVSIFLSAAFVMFLVYKNFPQLSEEERVNMKVPRDMDDAKALGKVLSKYKDTFYVQVLVAYFATYIFLQTFAIPGSIFLSILSGFLYPFPLALFLVCLCSGLGASFCYMLSYLVGRPVVYKYLTEKAVKWSQQVERHREHLINYIIFLRITPFLPNWFINITSPVINVPLKVFFIGTFLGVAPPSFVAIKAGTTLYQLTTAGEAVSWNSIFILMILAVLSILPAIFQKKLKQKFE

System: GFP-14-3-3β
Assay: GFP-14-3-3β co-IP with LC-MS/MS, untreated GFP-14-3-3β versus GFP control (14-3-3 interactome)
Assay type: binding, human
Conditions: log2 difference; pairwise comparison untreated vs GFP, label-free quantification, 3 replicates each

Molecule	Difference (log2), untreated vs GFP
B1	0.5274

Same assay, conditions: pairwise comparison untreated vs GFP

Molecule	Difference (log2), untreated vs GFP
B2	1.1372 log2
B3	-0.9623 log2
B4	0.6541 log2
B5	-0.2958 log2
B6	0.7048 log2
B7	0.8349 log2

System: GFP-14-3-3β and its binding proteins
Assay: GFP-14-3-3β co-IP with LC-MS/MS label-free quantification, untreated versus PP1c-treated
Parameters: species or system human
Conditions: log2 difference; pairwise comparison PP1 vs untreated, label-free quantification, 3 replicates each

Molecule	Difference (log2), PP1 vs untreated
B1	2.053

Same assay, conditions: pairwise comparison PP1 vs untreated

Molecule	Difference (log2), PP1 vs untreated
B2	0.177 log2
B3	0.2305 log2
B4	0.1821 log2
B5	0.1784 log2
B6	0.1978 log2
B7	0.218 log2
